Source: the supplement of paper PMC11908140

B1: library; numbered along this chain (parent)
chain: MRKPRAAVGSGHRKQAASQEGRQKHAKNNSQAKPSACDGLARQPEEVVLQASVSSYHLFRDVAEVTAFRGSLLSWYDQEKRDLPWRRRAEDEMDLDRRAYAVWVSEVMLQQTQVATVINYYTGWMQKWPTLQDLASASLEEVNQLWAGLGYYSRGRRLQEGARKVVEELGGHMPRTAETLQQLLPGVGRYTAGAIASIAFGQATGVVDGNVARVLCRVRAIGADPSSTLVSQQLWGLAQQLVDPARPGDFNQAAMELGATVCTPQRPLCSQCPVESLCRARQRVEQEQLLASGSLSGSPDVEECAPNTGQCHLCLPPSEPWDQTLGVVNFPRKASRKPPREESSATCVLEQPGALGAQILLVQRPNSGLLAGLWEFPSVTWEPSEQLQRKALLQELQRWAGPLPATHLRHLGEVVHTFSHIKLTYQVYGLALEGQTPVTTVPPGARWLTQEEFHTAAVSTAMKKVFRVYQGQQPGTCMGSKRSQVSSPCSRKKPRMGQQVLDNFFRSHISTDAHSLNSAAQ

Variants of: B1
Assay: 8OG:A repair function score (normalized; synonymous = 0, nonsense = -1) (normalized log-likelihood score); higher = more repair activity (WT-like)
Details: with 8OG:A DNA repair reporter (GFP) in HEK-293 MUTYH KO cells
Description: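 Saturation mutagenesis (NNN codon scan) of the MUTYH cDNA (521-aa nuclear isoform NM_001048174.1 / NP_001041639), stably expressed under doxycycline induction in HEK-293 MUTYH knockout cells. Cells were co-transfected with an 8OG:A-bearing GFP repair reporter plus mCherry and sorted 72 h later into GFP+ and GFP− bins, three replicates per tile. The Rosace log2 enrichment (GFP+ vs GFP−) was converted per tile to a normalized function score with synonymous variants centered at 0 and nonsense variants (codons 1-471) at -1; low-abundance variants were removed.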

8OG:A repair function score, by site and new letter:
E46: D 0.0496; S -0.0996; A 0.0651; K -0.0383; W -0.0064; N -0.0764; I 0.0225; T 0.134; F 0.0911; L -0.211; C 0.0656; V 0.0528; H -0.0875; Q 0.0688; P 0.0495; G -0.0545; M -0.119; Y -0.0657; R 0.0933
G39: E 0.0199; N 0.241; D 0.118; A 0.101; T 0.103; L 0.0565; F 0.045; C -0.0254; P 0.0274; I -0.0353; V 0.0274; M 0.24; R 0.0558; Y -0.0346; K 0.121; H -0.44; S 0.0658
Q50: P 0.126; I -0.135; G -0.0798; K 0.0673; Y -0.0626; N 0.00105; S 0.0939; C 0.0151; M -0.0659; F -0.0563; D 0.088; V -0.0513; E 0.0122; L -0.0733; R 0.0284; A -0.00978; W 0.014; T -0.147; H -0.0435
P44: E -0.0552; Q -0.113; D -0.119; G -0.111; V -0.0774; K 0.00377; A -0.142; I -0.165; C -0.247; W -0.102; S -0.107; R -0.0646; H -0.0386; N -0.0778; T 0.166; F -0.202; L -0.133; Y -0.212; M -0.107
A51: N -0.00641; V 0.0738; K 0.124; P 0.142; Q 0.214; E 0.0222; D 0.029; M -0.607; F -0.116; Y 0.00468; W 0.101; H 0.0322; I -0.041; C 0.0297; R 0.00957; S 0.0659; L -0.036; G -0.0113
K3: Y 0.137; R -0.0184; A 0.108; M -0.238; W -0.0484; I -0.161; D -0.233; T 0.144; G 0.00287; N 0.00918; P 0.0268; H 0.0273; S -0.0766; F 0.00169; Q 0.107; C -0.0701; V -0.0444; E -0.174; L 0.0859
S52: A 0.00623
V48: K 0.119; Q 0.0497; G 0.0279; M -0.0648; H 0.0666; L -0.0249; W 0.0774; R 0.0418; T -0.0154; D 0.0961; N 0.0431; E -0.122; C 0.0424; F -0.0263; P -0.11; I 0.0882; A 0.00435; S -0.0148; Y -0.141
R2: I 0.124; W -0.00849; L -0.084; V 0.0618; A -0.0711; C -0.529; S 0.049; P -0.00444; Y -0.155; F 0.0866; M -0.169; K 0.125; H -0.00678; N 0.108; G 0.122; D -0.112; T 0.0193; Q -0.0466
R42: V 0.0781; E 0.021; Q 0.102; H 0.0289; D 0.0284; G 0.0112; M -0.196; S 0.0235; I -0.00552; A 0.112; F 0.00894; T -0.0609; P -0.176; W 0.0271; Y 0.0172; C 0.0324; L -0.0705; K 0.0776; N 0.0413
Q43: C 0.138; G -0.0204; A 0.0603; H 0.0802; S -0.0281; F 0.0374; E 0.0951; T 0.0245; P 0.054; K 0.0479; Y -0.0469; N -0.0614; D 0.0131; W -0.0384; L 0.0948; I 0.0991; R 0.0791; V -0.0464; M 0.0733
A36: R -0.15; W -0.0681; I -0.0893; K -0.187; P 0.00994; F 0.0951; M -0.076; E 0.00159; C 0.066; G -0.011; H 0.146; T 0.118; D -0.0511; Q -0.0644; N -0.0203; V 0.0896; L -0.0486; S -0.0113
P34: K 0.166; W 0.133; H 0.142; T -0.0245; C 0.0156; R 0.0769; S 0.0874; M 0.176; Q 0.146; N 0.0767; L 0.131; D 0.128; A -0.039; I -0.0342; G -0.0669; V -0.0896; E 0.0965
L40: E 0.0138; G 0.0939; V 0.0896; F 0.134; D 0.21; N 0.042; C -0.0146; H 0.00147; Q 0.0733; R 0.0698; M 0.227; P 0.00594; W 0.123; K 0.127; A 0.139; T 0.087; I -0.0464; S 0.073; Y 0.179
L49: E 0.0582; V -0.0831; C 0.125; R 0.00838; K -0.236; M 0.233; Q -0.00358; H 0.0564; D 0.0266; N 0.241; F -0.0825; I -0.0224; P 0.109; T 0.0602; A 0.0219; Y -0.0309; W -0.109; G -0.027; S 0.027
A6: I -0.177; L 0.01; H -0.0145; P -0.0227; C -0.117; M -0.168; D -0.15; R -0.0747; S -0.117; G 0.0165; E 0.137; V 0.0405; Y -0.0552; Q 0.0112; K -0.0201; N -0.0265; T 0.0379; F 0.0517
A41: T 0.0139; Y -0.107; G -0.0656; M -0.0227; W -0.0976; H -0.0884; R 0.0859; I 0.0909; P 0.00904; N 0.0813; V -0.0754; L -0.0575; Q 0.168; D -0.0561; F 0.0355; S -0.048; C -0.0569; K -0.0537; E -0.0689
V47: C 0.0227; D -0.0274; I 0.0706; R -0.00231; Q -0.0401; W 0.0191; T -0.0192; N 0.0108; E -0.116; F 0.0442; A 0.101; Y -0.0242; K 0.00868; M -0.0812; G -0.0668; H 0.0522; L -0.135; S -0.0698; P -0.0988
E45: A -0.024; I -0.0125; P -0.0802; S -0.0822; K -0.0451; Y 0.0286; H 0.0965; T 0.0748; L -0.0561; R 0.0409; M 0.00456; F -0.059; N 0.01; V -0.122; G 0.13; Q -0.0405; C -0.0211; D 0.155
